The text below walks through data of PMC7872222.

In the assay the target is biotinylated FYCO1 peptide (human). In words: BLI. On the technique in general: BLI is a label-free optical method that tracks binding on a fibre tip over time.

Usually Kd stands for the equilibrium constant for the complex coming apart. Read a low Kd as higher affinity. For “GABARAP (from UniProt O95166 1-117) (natural protein)”, the Kd was found to be 1400 nM.
